In article PMC13064845 (2025):

Biological target: thrombospondin-1 (TSP1), immobilised in the Biacore analysis (UniProt P35441 19-1170)
Assay: SPR

Chain of thrombospondin-1 (TSP1), immobilised in the Biacore analysis (P35441 19-1170): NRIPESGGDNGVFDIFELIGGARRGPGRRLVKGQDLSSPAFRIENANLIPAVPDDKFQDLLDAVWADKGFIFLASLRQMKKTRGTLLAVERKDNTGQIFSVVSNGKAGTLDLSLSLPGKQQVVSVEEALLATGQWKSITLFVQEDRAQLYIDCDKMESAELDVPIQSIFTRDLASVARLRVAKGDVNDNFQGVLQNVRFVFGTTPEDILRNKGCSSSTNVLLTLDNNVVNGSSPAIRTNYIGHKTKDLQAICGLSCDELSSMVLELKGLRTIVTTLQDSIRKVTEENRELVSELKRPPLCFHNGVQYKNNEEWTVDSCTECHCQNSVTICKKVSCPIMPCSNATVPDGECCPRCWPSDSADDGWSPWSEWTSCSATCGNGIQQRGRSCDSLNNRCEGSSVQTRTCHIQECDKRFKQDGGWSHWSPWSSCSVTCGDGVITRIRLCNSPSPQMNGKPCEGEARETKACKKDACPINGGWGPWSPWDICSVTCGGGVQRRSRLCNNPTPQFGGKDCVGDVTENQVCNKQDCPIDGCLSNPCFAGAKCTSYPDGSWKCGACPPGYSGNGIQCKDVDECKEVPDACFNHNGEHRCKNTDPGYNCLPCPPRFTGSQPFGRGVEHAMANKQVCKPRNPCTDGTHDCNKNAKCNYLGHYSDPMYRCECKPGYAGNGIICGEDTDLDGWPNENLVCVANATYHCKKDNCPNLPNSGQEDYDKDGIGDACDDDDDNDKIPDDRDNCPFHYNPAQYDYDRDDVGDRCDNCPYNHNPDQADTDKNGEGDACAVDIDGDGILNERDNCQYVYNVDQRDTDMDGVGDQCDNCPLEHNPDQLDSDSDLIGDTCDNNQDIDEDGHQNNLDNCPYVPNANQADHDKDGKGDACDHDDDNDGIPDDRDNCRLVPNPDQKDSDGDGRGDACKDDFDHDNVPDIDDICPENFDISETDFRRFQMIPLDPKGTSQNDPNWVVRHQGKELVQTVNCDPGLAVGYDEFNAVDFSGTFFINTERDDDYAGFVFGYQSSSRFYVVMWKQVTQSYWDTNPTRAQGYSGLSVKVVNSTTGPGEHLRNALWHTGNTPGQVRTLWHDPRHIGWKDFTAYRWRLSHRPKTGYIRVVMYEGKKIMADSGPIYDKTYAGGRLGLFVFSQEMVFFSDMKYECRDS

Kd: 29.9 nM
B1: fibulin-7 (FBLN7), analyte of the Biacore analysis (natural protein)
chain: QSCLNKQQLLTTIRQLQQLLKGQETRFTEGIRNMKSRLAALQNTVNKMTPDAPPVSCPALEAPPDGKKFGSKYLVDHEVYFTCNPGFQLVGPSSVVCLANGSWTGEQPRCRDISECSSQPCHNGGTCVEGINHYRCICPPGKTGNRCQHQTQAAAPDGGEAGDPAFSRAPRCAQVEREQHCSCEAGFHLSSTTGGHSVCQDVNECEIYGQKGRPRLCMHACVNTPGSYRCTCPSGYRILADGKSCEDVDECAGPQHMCPRGTTCINTGGGFQCVNPECPEGSGNISYVKTSPFQCERNPCPMDSRPCRHLPKTISFHYLSLPSKLKTPITLFRMATASIPGHPGPNSLRFGIVGGNSRGHFVMQRSDRQTGELILTQTLEGPQTLEVDVDMSEYLERSFQANHVSKVTIFVSRYDF
